The record followed here is patent publication US20240116985A1 (published 2024).

Starred links: 1 amine or outer side, 2 acyl side, 3 side chain; linkers in the order of their positions; H or OH if unused. Positions of bridges follow the written chain, without caps; N, C: chain ends. Non-standard residues stand in square brackets, D forms with d. Primed or numbered codes have the meaning given here. SeN″ = (S)-5-(((allyloxy)carbonyl)(methyl)amino)-2-amino-2-methylpentanoic acid (stapling residue), C=CCOC(=O)N(C)CCC[C@](C)(N[*:1])C(=O)[*:2]; RdN″ = (R)-4-(((allyloxy)carbonyl)(methyl)amino)-2-amino-2-methylbutanoic acid (stapling residue), C=CCOC(=O)N(C)CC[C@@](C)(N[*:1])C(=O)[*:2]; B5(16) = 2-amino-2-(pent-4-en-1-yl)hept-6-enoic acid = 2,2-bis(4-pentenyl)glycine (stitching residue), C=CCCCC(CCCC=C)(N[*:1])C(=O)[*:2]; B5(23) = 2-amino-2-(pent-4-en-1-yl)hept-6-enoic acid (2,2-bis(4-pentenyl)glycine), stitching residue, C=CCCCC(CCCC=C)(N[*:1])C(=O)[*:2]; B5(5) = 2,2-bis(4-pentenyl)glycine, 2-amino-2-(pent-4-en-1-yl)hept-6-enoic acid (stitching residue), C=CCCCC(CCCC=C)(N[*:1])C(=O)[*:2]; B5(9) = 2-amino-2-(pent-4-en-1-yl)hept-6-enoic acid (2,2-bis(4-pentenyl)glycine), C=CCCCC(CCCC=C)(N[*:1])C(=O)[*:2]; B5(19) = 2-amino-2-(pent-4-en-1-yl)hept-6-enoic acid (bis(4-pentenyl)glycine), C=CCCCC(CCCC=C)(N[*:1])C(=O)[*:2]; EtGA = (S)-2-amino-3-((carboxymethyl)(ethyl)amino)propanoic acid, CCN(CC(=O)[*:3])C[C@H](N[*:1])C(=O)[*:2]; B5 = 2-amino-2-(pent-4-en-1-yl)hept-6-enoic acid, C=CCCCC(CCCC=C)(N[*:1])C(=O)[*:2]; S7 = C[C@@](CCCCCC=[*:3])(N[*:1])C(=O)[*:2]; Phe(3-F) = N[C@@H](Cc1cccc(F)c1)C(=O)O; His(τ-Me) = Cn1cnc(C[C@H](N)C(=O)O)c1; Bta = N[C@@H](Cc1csc2ccccc12)C(=O)O; αAllylPro = C=CC[C@@]1(C(=O)O)CCCN1; S8 = C=CCCCCCC[C@](C)(N)C(=O)O

B1: I-148 (peptide)
peptide: Ac-ADI[RdN″]DEAAFQ[S7]FW-NH2
modifications: staple 4-11
notes: also called Ac-Ala-Asp-Ile-RdN-Asp-Glu-Ala-Ala-Phe-Gln-S7-Phe-Trp-NH2
B2: I-178 (peptide)
peptide: Ac-[αAllylPro]DA[B5(19)]DEAAFQ[S8]FWH-NH2
modifications: staple 1-4, 4-11
notes: also called Ac-PL3-Asp-Ala-B5-Asp-Glu-Ala-Ala-Phe-Gln-S8-Phe-Trp-His-NH2
B3: I-174 (peptide)
peptide: Ac-[αAllylPro]DI[B5(5)]DDAAFQ[S8]FWH-NH2
modifications: staple 1-4, 4-11
notes: also called Ac-PL3-Asp-Ile-B5-Asp-Asp-Ala-Ala-Phe-Gln-S8-Phe-Trp-His-NH2
B4: I-155 (peptide)
peptide: ADIXDEAAFAXFWA
modifications: not fully specified; N-terminal acetyl (Ac); RdN at 4 and S7 at 11 (staple RdN-S7 by olefin metathesis); C-terminal amide (NH2)
notes: also called Ac-Ala-Asp-Ile-RdN-Asp-Glu-Ala-Ala-Phe-Ala-S7-Phe-Trp-Ala-NH2
B5: I-173 (peptide)
peptide: Ac-[αAllylPro]DA[B5]D[EtGA]AAFV[S8]FWQ-NH2
modifications: staple 1-4, 4-11; not fully specified
notes: also called Ac-PL3-Asp-Ala-B5-Asp-EtGA-Ala-Ala-Phe-Val-S8-Phe-Trp-Gln-NH2
B6: I-388 (peptide)
peptide: XDAXDEAAFVXFXQ
modifications: not fully specified; N-terminal Ac; PL3 at 1, B5 at 4, S8 at 11 (stapled 1-4 and 4-11 by olefin metathesis); 23FF at 12; BztA at 13; C-terminal NH2
notes: Stapled peptide; also called Ac-PL3-Asp-Ala-B5-Asp-Glu-Ala-Ala-Phe-Val-S8-23FF-BztA-Gln-NH2
B7: I-396 (peptide)
peptide: Ac-[αAllylPro]DA[B5(9)]DHAAFV[S8][Phe(3-F)][Bta]Q-NH2
modifications: staple 1-4, 4-11; also: earlier eluting HPLC isomer, E/Z not assigned
notes: Stapled peptide; also called Ac-PL3-Asp-Ala-B5-Asp-His-Ala-Ala-Phe-Val-S8-3FF-BztA-Gln-NH2
B8: I-406 (peptide)
peptide: Ac-[αAllylPro]DA[B5(23)]DEAAFQ[S8]F[Bta]Q-NH2
modifications: staple 1-4, 4-11
notes: Stapled peptide; also called Ac-PL3-Asp-Ala-B5-Asp-Glu-Ala-Ala-Phe-Gln-S8-Phe-BztA-Gln-NH2
B9: I-400 (peptide)
peptide: Ac-[αAllylPro]DA[B5(16)]DHAAFQ[SeN″][Phe(3-F)][Bta]Q-NH2
modifications: staple 1-4, 4-11; not fully specified; printed as Ac-PL3-Asp-Ala-B5-Asp-His-Ala-Ala-Phe-Gln-SeN-3FF-BztA-Gln-NH2
notes: Stapled peptide; also called Ac-PL3-Asp-Ala-B5-Asp-His-Ala-Ala-Phe-Gln-SeN-3FF-BztA-Gln-NH2
B10: I-410 (peptide)
peptide: Ac-[αAllylPro]DV[B5(23)]DEAAFQ[S8]F[Bta]Q-NH2
modifications: staple 1-4, 4-11
notes: Stapled peptide; also called Ac-PL3-Asp-Val-B5-Asp-Glu-Ala-Ala-Phe-Gln-S8-Phe-BztA-Gln-NH2
B11: I-398 (peptide)
peptide: Ac-[αAllylPro]DA[B5(16)]DHAAFV[SeN″][Phe(3-F)][Bta]Q-NH2
modifications: staple 1-4, 4-11; not fully specified; printed as Ac-PL3-Asp-Ala-B5-Asp-His-Ala-Ala-Phe-Val-SeN-3FF-BztA-Gln-NH2
notes: Stapled peptide; also called Ac-PL3-Asp-Ala-B5-Asp-His-Ala-Ala-Phe-Val-SeN-3FF-BztA-Gln-NH2
B12: I-407 (peptide)
peptide: Ac-[αAllylPro]DI[B5(23)]DEAAFQ[S8]F[Bta]Q-NH2
modifications: staple 1-4, 4-11
notes: Stapled peptide; also called Ac-PL3-Asp-Ile-B5-Asp-Glu-Ala-Ala-Phe-Gln-S8-Phe-BztA-Gln-NH2
B13: I-397 (peptide)
peptide: XDAXDHAAFVXFXQ
modifications: not fully specified; N-terminal Ac; PL3 at 1, B5 at 4, S8 at 11 (stapled 1-4 and 4-11 by olefin metathesis); 3FF at 12; BztA at 13; C-terminal NH2
notes: as for B7
B14: I-403 (peptide)
peptide: Ac-[αAllylPro]DA[B5(16)]D[His(τ-Me)]AAFV[S8][Phe(3-F)][Bta]Q-NH2
modifications: staple 1-4, 4-11; not fully specified
notes: Stapled peptide; also called Ac-PL3-Asp-Ala-B5-Asp-1meH-Ala-Ala-Phe-Val-S8-3FF-BztA-Gln-NH2
B15: I-399 (peptide)
peptide: XDAXDHAAFQXFXQ
modifications: not fully specified; N-terminal Ac; PL3 at 1, B5 at 4, S8 at 11 (stapled 1-4 and 4-11 by olefin metathesis); 3FF at 12; BztA at 13; C-terminal NH2
notes: Stapled peptide; also called Ac-PL3-Asp-Ala-B5-Asp-His-Ala-Ala-Phe-Gln-S8-3FF-BztA-Gln-NH2

In the first assay the target is T1, full-length beta-Catenin (Uniprot ID P35222) (Homo sapiens (Human), UniProt P35222 1-781).
T1 construct: The assay protocol says 'full-length beta-Catenin (Uniprot ID P35222)'; also called bCat; B-Catenin
T1 sequence: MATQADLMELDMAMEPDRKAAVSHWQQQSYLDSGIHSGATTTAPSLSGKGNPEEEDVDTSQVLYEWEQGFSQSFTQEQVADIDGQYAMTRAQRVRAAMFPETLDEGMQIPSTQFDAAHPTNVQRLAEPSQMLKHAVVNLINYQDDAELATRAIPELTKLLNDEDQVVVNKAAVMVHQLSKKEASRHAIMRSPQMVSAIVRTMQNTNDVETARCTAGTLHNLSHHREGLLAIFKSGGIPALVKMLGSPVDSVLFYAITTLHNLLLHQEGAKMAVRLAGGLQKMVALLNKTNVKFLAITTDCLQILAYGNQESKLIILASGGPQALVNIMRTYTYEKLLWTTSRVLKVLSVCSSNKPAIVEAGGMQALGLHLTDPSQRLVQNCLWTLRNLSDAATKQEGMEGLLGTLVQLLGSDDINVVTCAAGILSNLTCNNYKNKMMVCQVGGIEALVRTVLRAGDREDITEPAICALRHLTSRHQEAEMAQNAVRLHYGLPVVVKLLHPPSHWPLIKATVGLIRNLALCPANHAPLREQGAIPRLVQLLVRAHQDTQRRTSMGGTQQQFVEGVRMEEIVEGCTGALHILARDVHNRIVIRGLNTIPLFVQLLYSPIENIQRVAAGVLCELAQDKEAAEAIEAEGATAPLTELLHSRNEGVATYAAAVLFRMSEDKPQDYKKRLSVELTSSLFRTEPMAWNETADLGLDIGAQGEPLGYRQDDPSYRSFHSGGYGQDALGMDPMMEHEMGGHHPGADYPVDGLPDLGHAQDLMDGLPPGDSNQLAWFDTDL
The assay can be described thus: fluorescence polarization competition; full-length beta-catenin, competitor 5FAM-TCF4(10-53) probe. The gist of the method:
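Readings followed a light-protected 60-minute incubation at 20° C. Each read was done in duplicate. Curves were fit with a 1:1 binding model including hill slope, and stated concentrations are final.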
Background: Polarisation of emitted light reports the rotation of a fluorescent probe.
A word on the IC50: it is the concentration needed to halve the response being measured. Higher therefore signals a need for much substance. With B1, the IC50 is 2770 nM. Molecule B2 returned an IC50 of 1630 nM.

Regarding B3, the half-maximal inhibitory concentration (IC50) is 1760 nM. This IC50 and that of the molecule before are within 1.5-fold of each other. Consider B4, for which the IC50 came to 5000 nM. Same read-out and setting: next, B5: 3120 nM.

The next assay deals with T2, full-length beta-Catenin (Uniprot ID P35222) (Homo sapiens (Human), UniProt P35222 1-781).
T2 construct: The assay text says full-length beta-Catenin (Uniprot ID P35222); also called bCat; B-Catenin
T2 sequence: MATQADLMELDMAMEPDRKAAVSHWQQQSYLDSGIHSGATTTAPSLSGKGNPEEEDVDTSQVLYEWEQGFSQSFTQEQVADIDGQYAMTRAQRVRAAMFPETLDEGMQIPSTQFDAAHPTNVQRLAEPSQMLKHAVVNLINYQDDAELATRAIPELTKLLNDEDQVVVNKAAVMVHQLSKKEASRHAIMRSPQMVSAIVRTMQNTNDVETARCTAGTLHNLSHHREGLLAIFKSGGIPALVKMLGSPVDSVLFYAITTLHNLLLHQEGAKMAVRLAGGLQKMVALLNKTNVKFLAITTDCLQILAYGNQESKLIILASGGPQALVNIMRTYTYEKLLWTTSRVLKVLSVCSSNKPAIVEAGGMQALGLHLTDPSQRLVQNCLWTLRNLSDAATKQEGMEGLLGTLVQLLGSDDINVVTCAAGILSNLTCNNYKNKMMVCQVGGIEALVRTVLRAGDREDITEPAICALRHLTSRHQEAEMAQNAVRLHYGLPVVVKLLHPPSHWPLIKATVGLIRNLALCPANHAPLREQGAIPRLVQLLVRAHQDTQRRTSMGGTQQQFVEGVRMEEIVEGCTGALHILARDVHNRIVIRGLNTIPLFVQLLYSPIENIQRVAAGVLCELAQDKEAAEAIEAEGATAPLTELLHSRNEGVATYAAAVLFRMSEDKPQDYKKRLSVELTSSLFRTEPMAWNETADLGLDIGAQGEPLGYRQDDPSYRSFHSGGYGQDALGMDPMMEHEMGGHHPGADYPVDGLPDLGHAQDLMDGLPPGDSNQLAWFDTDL
The assay can be described thus: fluorescence polarization competition; full-length beta-catenin with 5FAM-labeled TCF4 (residues 10-53) probe as competitor. The method, then:
The plate was incubated protected from light for 60 minutes at 20° C. prior to read. Reads were performed on a CLARIOstar plate reader (BMG Labtech) in duplicate, and data were fitted to a 1:1 binding model with hill slope using an in-house script. All provided concentrations are final concentrations.
With B6, the IC50 came out at 5000 nM.

On to B7, for which the IC50 worked out at 3430 nM. Still for that read-out and setting: next, B8: 94 nM.

For B9, the IC50 stood at 3590 nM. Same read-out and setting: as for B10, the figure is 50 nM. Still for that read-out and setting: as for B11, the figure is 2160 nM; as for B12, 30 nM.

In the case of B13, the concentration for half-maximal inhibition (IC50) was 2230 nM. On the same count and under the same terms, as for B14, the figure is 2130 nM; as for B15, 2500 nM.
